Publication PMC4348336 (Biochemistry, 2015)

Biological target: Creatine kinase brain type (CKB) (UniProt P12277 1-381)
Test: SEC-MALS

Creatine kinase brain type (CKB), sequence (P12277 whole entry): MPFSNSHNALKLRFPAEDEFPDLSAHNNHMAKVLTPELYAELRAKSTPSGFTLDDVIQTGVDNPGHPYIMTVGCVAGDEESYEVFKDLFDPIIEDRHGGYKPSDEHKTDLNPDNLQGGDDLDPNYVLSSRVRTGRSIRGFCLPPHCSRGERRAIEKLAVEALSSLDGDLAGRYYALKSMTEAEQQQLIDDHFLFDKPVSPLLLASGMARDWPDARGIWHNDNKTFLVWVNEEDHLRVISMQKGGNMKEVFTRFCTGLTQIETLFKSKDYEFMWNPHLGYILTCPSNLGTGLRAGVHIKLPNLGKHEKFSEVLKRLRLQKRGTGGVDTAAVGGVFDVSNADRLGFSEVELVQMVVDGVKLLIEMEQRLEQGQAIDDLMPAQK

stoichiometry N: 1 ASB9 per CK dimer
B1: ASB9(1-252) (domain or fragment, UniProt Q96DX5 1-252, looked up)
chain: MDGKQGGMDGSKPAGPRDFPGIRLLSNPLMGDAVSDWSPMHEAAIHGHQLSLRNLISQGWAVNIITADHVSPLHEACLGGHLSCVKILLKHGAQVNGVTADWHTPLFNACVSGSWDCVNLLLQHGASVQPESDLASPIHEAARRGHVECVNSLIAYGGNIDHKISHLGTPLYLACENQQRACVKKLLESGADVNQGKGQDSPLHAVARTASEELACLLMDFGADTQAKNAEGKRPVELVPPESPLAQLFLER
